Laboratory results reported in patent publication US20240024519A1, “RADIOPHARMACEUTICAL COMPOSITIONS OF COPPER FOR TARGETED MOLECULAR IMAGING” (Curium US LLC, priority 2022, published 2024).

Experiment: Radiochemical purity (RCP) of dose vials over time after formulation, radio-HPLC
Assay type: physicochemical
Conditions: 10 Ci batches, with and without SPE purification (both formulations); post-formulation, i.e. after end of synthesis
Protocol: Two 10 Ci batches of copper Cu-64 PSMA I&T were prepared, wherein the primary difference between them was removal of the purification step. During purification, a solid phase extraction cartridge was used to purify the product by removing radiolabeling buffer and remaining ^64Cu copper chloride starting material; however, this step requires concentration of the batch activity in a small volume (i.e., <1 mL), which can encourage radiolytic damage and result in detrimental impacts to radiochemical purity (RCP). This phenomenon was observed experimentally when comparing the radiochemical purity of copper Cu-64 PSMA I&T prepared with and without purification (FIG. 2). The removal of the purification step yielded a product with a higher RCP of 98.9% (FIG. 2B) versus 92.4% (FIG. 2A). The difference between the two purity profiles was that the primary radiolytic impurity (tR=16.8′-17.2′) was largely absent in the non-purified product. In both formulations, the RCP of individual dose vials prepared thereof was maintained over a period of 51 h post-formulation (i.e., 51 h after end of synthesis).

## ^64Cu-(3S, 7S, 26R, 29R, 32R, 37R)-29-benzyl-32(4-hydroxy-3-iodobenzyl)-5, 13, 20, 28, 31, 34-hexaoxo-37-(4,7,10-tris(carboxymethyl)-1, 4, 7, 10-tetraazacyclododecan-1-yl)-4, 6, 12, 21, 27, 30, 33-heptaazaheptatriacontane-1, 3, 7, 26, 37-pentacarboxylic acid [Cu-64 PSMA I&T]
  period over which RCP of individual dose vials was maintained: 51 h
